Test in all cases: peptide SPOT array, c-Myc-tagged receptor at 1 uM or 100 nM, anti-c-Myc-Cy3
One assay addresses T1, Mcl-1, Q07820.
T1 chain: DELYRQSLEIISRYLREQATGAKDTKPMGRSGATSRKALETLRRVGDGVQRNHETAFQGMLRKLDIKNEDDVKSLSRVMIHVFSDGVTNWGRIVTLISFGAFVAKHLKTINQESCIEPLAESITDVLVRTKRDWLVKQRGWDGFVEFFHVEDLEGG

The next assay has as its target Bcl-xL, Q07817.
In a further assay the target is T2, Bfl-1, Q16548.
T2 chain: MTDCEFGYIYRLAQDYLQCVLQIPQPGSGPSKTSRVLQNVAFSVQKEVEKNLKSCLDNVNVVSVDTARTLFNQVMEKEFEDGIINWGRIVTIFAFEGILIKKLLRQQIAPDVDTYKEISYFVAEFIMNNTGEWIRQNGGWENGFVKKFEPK

The values that follow come from article PMC4072508, “Genome-Wide Prediction and Validation of Peptides That Bind Human Prosurvival Bcl-2 Proteins” (PLoS Computational Biology, 2014).

Chain of Bcl-xL, Q07817 (Q07817 1-209): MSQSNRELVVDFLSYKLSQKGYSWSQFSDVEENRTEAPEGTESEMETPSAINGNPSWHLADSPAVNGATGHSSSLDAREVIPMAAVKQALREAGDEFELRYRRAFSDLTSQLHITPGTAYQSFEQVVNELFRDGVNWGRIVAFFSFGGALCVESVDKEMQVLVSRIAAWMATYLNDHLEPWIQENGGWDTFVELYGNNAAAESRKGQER

As for ISSYMVLAPVDGYLGDRYNRKYLMCG [SPNS1], the SPOT signal as a fraction of Bim BH3's signal on the same receptor and array with Mcl-1, Q07820 was 0.69; with Bcl-xL, Q07817, 1.03; in the assay with Bfl-1, Q16548, 0.68.

For SKEVAILCSFDLGLGDSCFNTQLLSI [MFSD11], the SPOT signal as a fraction of Bim BH3's signal on the same receptor and array in the assay with Mcl-1, Q07820 is 0.04; in the assay with Bcl-xL, Q07817 it was 0.08; with Bfl-1, Q16548, 0.03.

With APGEEDLCAAFNVILDNVGKDWRRLA [FADD], the SPOT signal as a fraction of Bim BH3's signal on the same receptor and array with Mcl-1, Q07820 was determined as 0.06; with Bcl-xL, Q07817, 0.06; in the assay with Bfl-1, Q16548, 0.04.

On to DSLLWKLAGLLRESGDVVLSGCSTLS [STK11IP], for which the SPOT signal as a fraction of Bim BH3's signal on the same receptor and array in the assay with Mcl-1, Q07820 stood at 0.05; in the assay with Bcl-xL, Q07817, 0.06; with Bfl-1, Q16548, 0.04.

As for PAKKMTLSEIYRWILDNFPYYKNAGI [FOXJ2], the SPOT signal as a fraction of Bim BH3's signal on the same receptor and array came to 0.42 with Mcl-1, Q07820; 0.82 with Bcl-xL, Q07817; 0.45 with Bfl-1, Q16548.

With PKKKMTLSEIDQWICDNFPYYREAGS [FOXJ3], the SPOT signal as a fraction of Bim BH3's signal on the same receptor and array worked out at 0.1 with Mcl-1, Q07820; 0.08 with Bcl-xL, Q07817; 0.06 with Bfl-1, Q16548.

As for SQEPLEKAQLLALVGDQLIQSHHYAA [MCF2L2], the SPOT signal as a fraction of Bim BH3's signal on the same receptor and array with Mcl-1, Q07820 is 0.04; with Bcl-xL, Q07817 it was 0.06; with Bfl-1, Q16548 it was 0.04.

On to MEMYQPSAVVLQCGLDSLSGDRLGCF [HDAC2], for which the SPOT signal as a fraction of Bim BH3's signal on the same receptor and array stood at 0.04 with Mcl-1, Q07820; 0.06 with Bcl-xL, Q07817; 0.03 with Bfl-1, Q16548.

For NNNMDVESRTMATMGDTLASRGLLDA [SEC16A], the SPOT signal as a fraction of Bim BH3's signal on the same receptor and array was 0.03 with Mcl-1, Q07820; 0.04 with Bcl-xL, Q07817; 0.06 with Bfl-1, Q16548.

PALLVHWAKCLQKMLRGLNSSYDQQE [RGPD2]: the SPOT signal as a fraction of Bim BH3's signal on the same receptor and array in the assay with Mcl-1, Q07820 was determined as 0.45; with Bcl-xL, Q07817, 0.55; in the assay with Bfl-1, Q16548, 0.39.

Take LSIIYTLVEIFQNILDTNLADFTAGL [SLC26A4]: the SPOT signal as a fraction of Bim BH3's signal on the same receptor and array came out at 0.05 with Mcl-1, Q07820; 0.06 with Bcl-xL, Q07817; 0.03 in the assay with Bfl-1, Q16548.

Turning to YIVLGLRKTTLQKVGKEVAELVGRVG [NLRX1], the SPOT signal as a fraction of Bim BH3's signal on the same receptor and array in the assay with Mcl-1, Q07820 stood at 0.33; with Bcl-xL, Q07817 it was 0.36; in the assay with Bfl-1, Q16548, 0.26.
